From patent US7863432B2, “Nucleic acid molecules encoding AKAP18 delta, a splice variant of a protein kinase A anchor protein” (Forschungsverbund Berlin e.V., priority 2002, dated 2011)

Biological target: T1, interaction between AKAP18δ and RIIα (Homo sapiens, UniProt P13861)
T1 construct: expressed in transfected cells; host or cells: HEK293
Assay: FRET measurement of AKAP18δ-CFP / RIIα-YFP interaction in co-transfected HEK293 cells
Format: cell-based
Details: 100 μM
Procedure: The interaction of the expressed fusion proteins AKAP18δ-CFP and RIIα-YFP was measured in the HEK293 cells using the fluorescence resonance energy transfer (FRET) technology (schematic diagram in FIG. 3). The FRET signals result from an energy transfer from CFP to YFP, which is only possible when the two proteins are in close proximity to each other (<10 nm). Such close proximity of CFP and YFP is achieved only when AKAP186 directly binds the RIIα subunit. In this event, a FRET can be detected. […] A continuous decrease of the FRET signal during measurement indicates inhibition of the interaction between AKAP18δ and RIIα.
HEK293 cells (GBF, Brunswick) were cultured on polylysine-coated 30 mm cover glasses with 10% fetal calf serum (FCS) in Dulbecco's Minimal Eagle medium (DMEM) until a confluence of 40-60% was reached. […]
HEK293 cells were transiently co-transfected with the plasmids encoding RIIα-YFP and AKAP18δ-CFP. […] Fluorescence was excited at a wavelength of 425 nm for CFP and 488 nm for YFP. The emitted fluorescence was measured at a wavelength of 480/30 nm for CFP and 535/26 nm for YFP. The FRET of CFP to YFP was determined by excitation of CFP at a wavelength of 425 nm and measurement of the emission of YFP at a wavelength of 535/26 nm. Non-specific background fluorescence was determined in a region with no cells and subtracted. […]

T1 sequence (P13861 whole entry): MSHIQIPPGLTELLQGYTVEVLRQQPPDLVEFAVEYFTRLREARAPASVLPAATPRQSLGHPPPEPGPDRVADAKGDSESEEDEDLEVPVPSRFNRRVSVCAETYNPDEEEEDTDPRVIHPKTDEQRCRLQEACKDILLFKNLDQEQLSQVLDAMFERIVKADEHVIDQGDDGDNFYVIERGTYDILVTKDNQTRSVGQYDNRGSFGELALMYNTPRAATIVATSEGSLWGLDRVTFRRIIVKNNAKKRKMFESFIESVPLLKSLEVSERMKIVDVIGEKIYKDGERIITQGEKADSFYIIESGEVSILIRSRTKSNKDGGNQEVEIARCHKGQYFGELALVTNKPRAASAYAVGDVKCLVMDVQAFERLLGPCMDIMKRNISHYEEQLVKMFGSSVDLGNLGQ

Substance: S-Ht31: membrane-permeable peptide; sequence of the RII binding domain of AKAP Ht31, coupled to a stearate residue on the N terminus
- mean value of the 535/480 ratio after addition of peptide (HEK293 cells, ratio >0.6 taken as positive FRET signal): about 0.35
- decrease of the 535/480 nm ratio (FRET signal) (within 80 min, HEK293 cells co-expressing AKAP18δ-CFP and RIIα-YFP, ratio before addition about 1.3): more than 50%
